Laboratory results from the supplement of paper PMC10567573.
± gives the standard deviation.

Test: protein stability index of a GFP-peptide fusion (GPS, HEK-293T) (PSI 1-6); higher = more stable
Settings: c terminus: a fixed tail appended
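Also: 24-mer peptide tiles fused after GFP, lentivirally expressed, FACS-sorted into six equal bins by GFP/DsRed ratio, decoded by Illumina sequencing, PSI is the read-weighted mean bin number.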

Sequence	protein stability index (treatment: DMSO)	protein stability index (treatment: MLN4924 1 uM, 8 h)
EDEDEDEDEDEDKEEEEEDCSEEY [TAF7L]	5.65 ± 0.31	5.58 ± 0.13
EDQHRLYQQIKAGAYDFPSPEWDT [CAMK2D]	4.36 ± 0.26	4.42 ± 0.21
EDQTEYLEERRVKEVVKKHSQFIG [HSP90AB1]	4.11 ± 0.16	4.93 ± 0.17
EDTSNDESSILGTDIDLQTIDNDI [M1AP]	5.56 ± 0.093	5.56 ± 0.18
EEALRKNTEEQLEIALAPYQHLEE [MTUS2]	5.27 ± 0.18	5.22 ± 0.23
EEEGGEEEEEAAMYEEEMEREEIT [FAM50A]	5.6 ± 0.13	5.71 ± 0.11
EEEGIETQYFAELLMTSGVVLCEG [CNOT7]	3.27 ± 0.24	3.39 ± 0.12
EEEGPSTFPDLESEFQAALSRKVA [MAGEA3]	4.95 ± 0.22	5.12 ± 0.22
EEEISETGELVGPFVSAMPTPMPH [ZBED2]	5.1 ± 0.2	5.17 ± 0.15
EEEPGVRNGMASEGLNSSLCSPGH [PSD2]	5.1 ± 0.23	5.26 ± 0.13
EEKAFESVIEPVQESSFRSRKIAV [MIA2]	4.31 ± 0.16	4.11 ± 0.22
EELCAQSARCVVSFNILVEDRVKL [PCDHGA10]	2.57 ± 0.19	2.21 ± 0.4
EEREEGPPRIPQADQWKSSNKSLV [RHOBTB1]	4.99 ± 0.22	5.08 ± 0.29
EETESSDDVEVLTLKKFKGDLAYR [C8orf76]	4.71 ± 0.19	4.61 ± 0.16
EFKADAQLLLHNTVIFYGADSEQA [ZMYND11]	3.06 ± 0.32	3.32 ± 0.23
EFKSSFSQSFSLYVKYQVAIHQDP [ATE1]	2.63 ± 0.95	2.52 ± 0.95
EGASSDNGCEVKNRKSILSRHLNS [PHTF1]	4.74 ± 0.46	4.68 ± 0.16
EGLYEQAFQLLRRFVQAEGRRATL [TRADD]	2.28 ± 0.13	2.23 ± 0.54
EGYTPLMEAAREGHEEMVALLLGQ [ANKRD17]	4.07 ± 0.32	4.07 ± 0.22
EHPFLVNLWYSFQDEEDMFMVVDL [STK32A]	2.9 ± 0.73	2.63 ± 0.58
EHPNVVRLMDVCATSRTDREIKVT [CDK4]	3.93 ± 0.36	4.14 ± 0.38
EIKLVSDVTADSKVLEALKLKGAE [PLD5]	4.31 ± 0.41	4.34 ± 0.51

Sequence	protein stability index (treatment: DMSO)	protein stability index (treatment: MLN4924 1 uM, 8 h)
EKAFSYRQMAFDFARVKKGADGVM [SNAP91]	2.67 ± 0.16	2.86 ± 0.31
EKQELHRNMLGLLGNVAEVKELRP [ZER1]	3.74 ± 0.16	4.04 ± 0.31
ELAEHRCHPVERGIKSKEAEEYRL [PSD2]	4.89 ± 0.25	4.64 ± 0.36
ELDAIIEEVDEDGSGTIDFEEFLV [TNNC2]	4.4 ± 0.22	4.33 ± 0.23
ELERAQHELLLGSLQQQHQADLEL [FBF1]	4.15 ± 0.21	4.49 ± 0.28
ELGKGAFSVVRRCMKIPTGQEYAA [CAMK2D]	2.46 ± 0.21	2.2 ± 0.29
ELKLGRKVPESLVRSLRGEEPVPR [LURAP1L]	3.85 ± 0.25	4.16 ± 0.33
ELREACDYLCISFEYSTIKCRDLS [BTBD10]	3.06 ± 0.21	3.13 ± 1
ELWIYNMETGRWKKINTEGDVPPS [KLHDC2]	3.43 ± 0.2	3.61 ± 0.27
EMEEELRYAPLSFRNPMMSKLRNY [VTI1B]	2.78 ± 0.28	3.01 ± 0.25
EMRFAKMPDEPVEAPALPAPAAPM [BRD3]	4.66 ± 0.078	4.8 ± 0.24
ENHPQESKGQPRSQEESEEGEEDA [CHGB]	5.79 ± 0.094	5.64 ± 0.22
EPPKPTFPAYTQSTASTTSTTNST [ZNF207]	5.39 ± 0.3	5.04 ± 0.21
EPSELDNPFQDPAVIQHRPSRQYA [SCAMP3]	4.67 ± 0.22	4.77 ± 0.13
EQLSGAGYRVSAALEEADKMFLRT [EID1]	3.72 ± 0.22	4.1 ± 0.43
ERCSDSDEEKKARRGRSPKGEFKD [CLINT1]	5.43 ± 0.27	5.3 ± 0.51
EREKVTPLMVKGFRDAAEEGGTAV [SEPHS2]	5.24 ± 0.18	5.12 ± 0.16
ERHTMDLTVEGFQSWMWRGLTFLL [TMEM120A]	2.11 ± 0.41	2.28 ± 0.092
ERLNKEYQEIFQQLQRSWVKMDQK [TRIM43]	3.23 ± 0.3	3.39 ± 0.55
ERPAQRDCSFPGLPRHQDQPHHQP [TRAF3IP2]	4.72 ± 0.15	4.64 ± 0.28
ERQLKVMASDHREALLDRESENAS [LRRC45]	5.41 ± 0.3	5.33 ± 0.18
ESDSQGQGNGLFYSSGPQSWYPKA [ZC2HC1C]	3.62 ± 0.32	3.72 ± 0.34

Sequence	protein stability index (treatment: DMSO)	protein stability index (treatment: MLN4924 1 uM, 8 h)
ESGDEVPVELYTAFQHTPTSITLT [KMT2E]	2.73 ± 0.97	3.65 ± 0.62
ESSDDDSEEAPSTSGMGFHAPKIG [SDE2]	5.51 ± 0.23	5.41 ± 0.19
ETDEDEEEGDEQQRLLNTPRRKKL [GMCL1]	5.6 ± 0.3	5.63 ± 0.28
ETELSLRQLVEADINGLRRILDEL [KRT36]	3.12 ± 0.3	3.36 ± 0.34
ETENIIAANHWVLPAAEFHGLWDS [TRIP13]	3.28 ± 0.29	3.36 ± 0.26
ETPGSAVDYPLHDLVLHTNYTATV [TNXB]	2.83 ± 0.18	2.87 ± 0.55
ETTESQQNGEEGTSTPEDKESGQE [SMARCE1]	5.61 ± 0.18	5.23 ± 0.17
EVLDGVEDAEGEEEEEEEEEEEDD [FKBP8]	5.46 ± 0.38	5.69 ± 0.23
EVREPALRPAKRELRGAEPGRPAR [SPSB4]	4.48 ± 0.39	4.9 ± 0.22
FCIDSENRIGNSGVEEIKGHPFFE [STK38L]	2.97 ± 0.58	3.03 ± 0.18
FEGFQAVSLKQEGDDQPSETDHLS [TPRG1]	5.51 ± 0.17	5.54 ± 0.23
FEGMAFLETEQGKPFVSVFRHLRL [GMCL1]	2.66 ± 0.58	2.25 ± 0.31
FFFLRMDENYNLLPHGVNFQDAIF [CCDC3]	2.79 ± 0.43	2.97 ± 0.76
FFKGGGSSKSRAAPSPQEALVRLR [CHMP4C]	3.26 ± 0.053	3.33 ± 0.052
FFMTATQYFTNRLDMSQNVSLVTA [SLC29A1]	3.04 ± 0.4	2.92 ± 0.47
FFYPLVEDPYMMGRIACANVLSDL [SEPHS2]	2.38 ± 0.46	2.19 ± 0.47
FGCEECGKKYNTMLGYKRHLALHA [PLAGL1]	3.94 ± 0.12	3.97 ± 0.27
FGGQDENKQTLSSGEKYDPDANTW [GAN]	5.06 ± 0.074	5.01 ± 0.35
FGHLINGAIAVFVYASDKEWIRFD [PTGFR]	3.1 ± 0.29	3.1 ± 0.38
FGIKCAKCQVGFSSSDLVMRARDS [ISL2]	2.37 ± 0.32	2.54 ± 0.58
